Laboratory results reported in patent US20210060185.

Key:
[1] = system: T1, N-His Ana GvpC with ssrA degradation tag (engineered Anabaena flos-aquae GvpC, ClpXP-sensitive)
T1 sequence: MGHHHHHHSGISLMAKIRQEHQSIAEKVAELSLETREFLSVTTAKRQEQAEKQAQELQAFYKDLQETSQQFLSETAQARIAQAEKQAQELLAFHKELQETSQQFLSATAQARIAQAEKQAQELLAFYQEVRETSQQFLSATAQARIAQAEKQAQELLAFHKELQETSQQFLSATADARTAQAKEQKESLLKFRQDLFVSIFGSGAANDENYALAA

WT N-His-Ana-GvpC = system: T2, WT N-His-Ana-GvpC
T2 sequence: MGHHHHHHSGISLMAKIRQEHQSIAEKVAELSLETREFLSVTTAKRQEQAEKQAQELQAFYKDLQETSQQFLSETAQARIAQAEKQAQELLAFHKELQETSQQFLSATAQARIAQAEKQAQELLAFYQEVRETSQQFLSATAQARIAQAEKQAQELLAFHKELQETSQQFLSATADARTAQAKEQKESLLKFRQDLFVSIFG

[2] = system: dGvpC (Ana GvpC with SG-AANDENYALAA at the C-terminus, encoded in the acoustic sensor gene for ClpXP)

Substance	50% collapse pressure after ClpXP exposure (FIG. 9D) [1]	degradation on Coomassie-stained SDS-PAGE [1]	hydrostatic collapse midpoint shift (pressurized absorbance spectroscopy) [1]	increase in nonlinear CNR (FIG. 9E) [1]	nonlinear (x-AM) ultrasound contrast enhancement [1]	collapse pressure, ultrasound contrast and SDS-PAGE (WT N-His-Ana-GvpC)	nonlinear CNR with ClpXP induction (FIG. 10F) [2]	nonlinear ultrasound contrast in the mouse colon [2]
ClpXP in the reconstituted cell-free TX-TL system (purified Flag-ClpXdeltaNLinkedHexamer-His6 and ClpP from the pBEST-ClpP plasmid)	a reduction of “50% collapse” pressure from about 476 kPa to about 223 kPa	Gel electrophoresis performed after incubating GVSClpXP with this cell-free extract showed significant degradation of the engineered GvpC, compared to a negative control condition in which the extract was pre-treated with a protease inhibitor	a substantial weakening of the GV shell upon ClpX exposure, with the hydrostatic collapse midpoint shifting by nearly 250 kPa	FIG. 9E shows an 860% increase in CNR	a 17 dB enhancement in the nonlinear contrast produced by GVSClpXP at an acoustic pressure of 477 kPa, in response to ClpXP activity	Control GVs containing wild type GvpC showed no sensitivity to ClpXP	–	–
ClpXP of E. coli Nissle 1917 (native, or ClpX and ClpP cloned from the Nissle genome under the pBAD promoter)	–	–	–	–	–	–	FIG. 10F shows a nonlinear CNR increase from 15.9 to 22.6	Cells induced to express this enzyme showed enhanced nonlinear contrast compared to cells not expressing ClpXP
